Test system: serum uric acid (sUA)
Assay: Serum uric acid (sUA) levels and sUA responders, open-label study of pegloticase with MTX (NCT03635957)
Type: in vivo, human
Protocol: The primary objective is to estimate the response rate during Month 6 (Weeks 20, 22, and 24), as measured by the sustained normalization of serum uric acid (SUA) to <6 mg/dL for at least 80% of the time during Month 6 in subjects receiving KXX with MTX.
The primary efficacy outcome endpoint is the sustained normalization of SUA to <6 mg/dL for at least 80% of the time during month 6 (weeks 20, 22, and 24) in subjects receiving KXX with MTX. This is slightly below the urate solubility threshold and this threshold has been the accepted standard for nearly all modern gout trials. Participants who achieve this endpoint were classified as “responders.” Serum uric acid (SUA) responders may also be defined as participants achieving and maintaining SUA <6 mg/dL for at least 80% of the time during Month 6 (Weeks 20, 22, and 24).
Blood samples may be collected prior to each pegloticase infusion for measurement of SUA levels using the Beckman Coulter AU System Uric Acid procedure. Participants were declared “non-responders” if there were SUA measures >6 mg/dL at 2 consecutive study visits beginning with the week 2 visit. […] If the SUA goal is not maintained before or at the 12-week mark, it was assumed that the participant had developed clinically relevant anti-pegloticase antibody and they received no further infusions. This assumption and subsequent discontinuation of pegloticase was consistent with the protocol of large phase III randomized controlled trials and the product label. A formal stopping rule was 2 occasions of SUA levels of greater than 6 mg/dL.
Clinical Chemistry—Blood samples were collected prior to each pegloticase infusion for measurement of SUA levels (primary efficacy parameter) using the Beckman Coulter AU System Uric Acid procedure. In this procedure uric acid is converted to hydrogen peroxide. Hydrogen peroxide reacts with reagent to produce a chromophore which is read bichromatically at 660/800 nm. The amount of dye formed is proportional to the uric acid concentration in the sample.
Serum samples for measurement of SUA levels were collected at the Screening Visit, the Week −4 Visit (prior to the first dose of MTX), and the Week −2 Visit during the MTX Run-in Period; within 48 hours prior to each pegloticase infusion and after the end of each pegloticase infusion prior to discharge from the site during the Pegloticase+IMM Period; at the non-infusion Week 52/End of Study/Early Termination Visits and at the Post Treatment 3 and 6 Month Follow-up Visits. Additional serum samples for SUA levels were collected at optional non-infusion (Frequent Sampling) Visits at Weeks 1 and 7. […] Subjects with SUA level >6 mg/dL at 2 consecutive visits beginning at Week 2 visit discontinued treatment, completed the End of Pegloticase Infusion Visit procedures within 2 weeks and continued the subject visits according to the protocol (without treatment).
Efficacy analyses were performed using the modified intention-to-treat (mITT) population, defined as all enrolled subjects who received ≥1 dose of pegloticase. The proportion of Month 6 responders was summarized, along with a 95% confidence interval for the proportion. The proportion of Month 3 and overall (Months 3 and 6 combined) responders was analyzed similarly.
A subject was declared a non-responder if the subject had SUA level >6 mg/dL at 2 consecutive study visits beginning with the Week 2 Visit. In addition, a subject who withdraws from study treatment for any reason after the first dose of pegloticase in the KXX+MTX Period and prior to Month 6 (for the primary endpoint) or Month 3 (for the secondary endpoint) was considered a non-responder if SUA values were not collected at the planned time points.
Patients were administered oral MTX (15 mg/week) and folate (1 mg/day) 4 weeks prior to the first pegloticase infusion (Day 1) and throughout the pegloticase treatment period. […]

[1] = Day 1 - Post-Infusion, Month 6 sUA Non-Responders
[2] = Day 1 - Post-Infusion, Month 6 sUA Responders
[3] = Day 1 - Post-Infusion, mITT, n=11
[4] = Early Termination Visit, Month 6 sUA Non-Responders
[5] = Early Termination Visit, mITT, n=3
[6] = End of Pegloticase Infusions Visit, Month 6 sUA Responders
[7] = End of Pegloticase Infusions Visit, mITT, n=2
[8] = Week 1, Month 6 sUA Non-Responders
[9] = Week 2 - Post-Infusion, Month 6 sUA Non-Responders
[10] = Week 2 - Post-Infusion, Month 6 sUA Responders
[11] = Week 2 - Post-Infusion, mITT, n=14
[12] = Week 2 - Pre-Infusion, Month 6 sUA Non-Responders
[13] = Week 2 - Pre-Infusion, Month 6 sUA Responders
[14] = Week 2 - Pre-Infusion, mITT, n=14
[15] = Week 4 - Post-Infusion, Month 6 sUA Non-Responders
[16] = Week 4 - Post-Infusion, Month 6 sUA Responders
[17] = Week 4 - Post-Infusion, mITT, n=13
[18] = Week 4 - Pre-Infusion, Month 6 sUA Non-Responders
[19] = Week 4 - Pre-Infusion, Month 6 sUA Responders
[20] = Week 4 - Pre-Infusion, mITT, n=14
[21] = Week 6 - Post-Infusion, Month 6 sUA Non-Responders
[22] = Week 6 - Post-Infusion, Month 6 sUA Responders
[23] = Week 6 - Post-Infusion, mITT, n=12
[24] = Week 6 - Pre-Infusion, Month 6 sUA Non-Responders

B1: pegloticase (protein)
chain: TYKKNDEVEFVRTGYGKDMIKVLHIQRDGKYHSIKEVATTVQLTLSSKKDYLHGDNSDVIPTDTIKNTVNVLAKFKGIKSIETFAVTICEHFLSSFKHVIRAQVYVEEVPWKRFEKNGVKHVHAFIYTPTGTHFCEVEQIRNGPPVIHSGIKDLKVLKTTQSGFEGFIKDQFTTLPEVKDRCFATQVYCKWRYHQGRDVDFEATWDTVRSIVLQKFAGPYDKGEYSPSVQKTLYDIQVLTLGQVPEIEDMEISLPNIHYLNIDMSKMGLINKEEVLLPLDNPYGKITGTVKRKLSSRL
modifications: monomethoxy PEG conjugated; Krystexxa Sequence
notes: covalent conjugate of uricase produced by a genetically modified strain of Escherichia coli and monomethoxypoly (ethylene glycol)
sUA < 6 mg/dL, % [1]: (100%)
sUA Change from Baseline, Mean [1]: -6.60 mg/dL
sUA Change from Baseline, Median [1]: -7.20 mg/dL
sUA Observed, Mean [1]: 2.13 mg/dL
sUA Observed, Median [1]: 1.20 mg/dL
sUA < 6 mg/dL, % [2]: (100%)
sUA Change from Baseline, Mean [2]: -7.55 mg/dL
sUA Change from Baseline, Median [2]: -7.50 mg/dL
sUA Observed, Mean [2]: 0.83 mg/dL
sUA Observed, Median [2]: 0.30 mg/dL
sUA < 6 mg/dL, n (%) [3]: 11 (100%)
sUA Change from Baseline, Mean (SD) [3]: −7.29 (2.254) mg/dL
sUA Change from Baseline, Median [3]: -7.30 mg/dL
sUA Observed, Mean (SD) [3]: 1.18 (1.417) mg/dL
sUA Observed, Median [3]: 0.30 mg/dL
sUA Change from Baseline, Mean [4]: -0.57 mg/dL
sUA Change from Baseline, Median [4]: -0.20 mg/dL
sUA Observed, Mean [4]: 8.17 mg/dL
sUA Observed, Median [4]: 8.20 mg/dL
sUA < 6 mg/dL, n (%) [5]: 0%
sUA Change from Baseline, Mean (SD) [5]: −0.57 (0.635) mg/dL
sUA Change from Baseline, Median [5]: -0.20 mg/dL
sUA Observed, Mean (SD) [5]: 8.17 (0.058) mg/dL
sUA Observed, Median [5]: 8.20 mg/dL
sUA < 6 mg/dL, % [6]: (100%)
sUA Change from Baseline, Mean [6]: -8.50 mg/dL
sUA Change from Baseline, Median [6]: -8.50 mg/dL
sUA Observed, Mean [6]: 0.30 mg/dL
sUA Observed, Median [6]: 0.30 mg/dL
sUA < 6 mg/dL, n (%) [7]: 2 (100%)
sUA Change from Baseline, Mean (SD) [7]: −8.50 (1.556) mg/dL
sUA Change from Baseline, Median [7]: -8.50 mg/dL
sUA Observed, Mean (SD) [7]: 0.30 (0.000) mg/dL
sUA Observed, Median [7]: 0.30 mg/dL
sUA < 6 mg/dL, % [8]: (100%)
sUA Change from Baseline, Mean [8]: -8.10 mg/dL
sUA Change from Baseline, Median [8]: -8.10 mg/dL
sUA Observed, Mean [8]: 0.30 mg/dL
sUA Observed, Median [8]: 0.30 mg/dL
sUA < 6 mg/dL, % (Week 1, Month 6 sUA Responders): (100%)
sUA Change from Baseline, Mean (Week 1, Month 6 sUA Responders): -6.88 mg/dL
sUA Change from Baseline, Median (Week 1, Month 6 sUA Responders): -7.15 mg/dL
sUA Observed, Mean (Week 1, Month 6 sUA Responders): 0.30 mg/dL
sUA Observed, Median (Week 1, Month 6 sUA Responders): 0.30 mg/dL
sUA < 6 mg/dL, n (%) (Week 1, mITT, n=6): 6 (100%)
sUA Change from Baseline, Mean (SD) (Week 1, mITT, n=6): −7.28 (1.556) mg/dL
sUA Change from Baseline, Median (Week 1, mITT, n=6): -7.75 mg/dL
sUA Observed, Mean (SD) (Week 1, mITT, n=6): 0.30 (0.000) mg/dL
sUA Observed, Median (Week 1, mITT, n=6): 0.30 mg/dL
sUA < 6 mg/dL, % [9]: (100%)
sUA Change from Baseline, Mean [9]: -8.43 mg/dL
sUA Change from Baseline, Median [9]: -8.10 mg/dL
sUA Observed, Mean [9]: 0.30 mg/dL
sUA Observed, Median [9]: 0.30 mg/dL
sUA < 6 mg/dL, % [10]: (100%)
sUA Change from Baseline, Mean [10]: -8.97 mg/dL
sUA Change from Baseline, Median [10]: -8.80 mg/dL
sUA Observed, Mean [10]: 0.30 mg/dL
sUA Observed, Median [10]: 0.30 mg/dL
sUA < 6 mg/dL, n (%) [11]: 14 (100%)
sUA Change from Baseline, Mean (SD) [11]: −8.86 (2.486) mg/dL
sUA Change from Baseline, Median [11]: -8.70 mg/dL
sUA Observed, Mean (SD) [11]: 0.30 (0.000) mg/dL
sUA Observed, Median [11]: 0.30 mg/dL
sUA < 6 mg/dL, % [12]: (66.7%)
sUA Change from Baseline, Mean [12]: -5.17 mg/dL
sUA Change from Baseline, Median [12]: -5.70 mg/dL
sUA Observed, Mean [12]: 3.57 mg/dL
sUA Observed, Median [12]: 2.70 mg/dL
sUA < 6 mg/dL, % [13]: (100%)
sUA Change from Baseline, Mean [13]: -8.64 mg/dL
sUA Change from Baseline, Median [13]: -8.80 mg/dL
sUA Observed, Mean [13]: 0.63 mg/dL
sUA Observed, Median [13]: 0.30 mg/dL
sUA < 6 mg/dL, n (%) [14]: 13 (92.9%)
sUA Change from Baseline, Mean (SD) [14]: −7.90 (2.878) mg/dL
sUA Change from Baseline, Median [14]: -8.70 mg/dL
sUA Observed, Mean (SD) [14]: 1.26 (2.163) mg/dL
sUA Observed, Median [14]: 0.30 mg/dL
sUA < 6 mg/dL, % [15]: (100%)
sUA Change from Baseline, Mean [15]: -8.60 mg/dL
sUA Change from Baseline, Median [15]: -8.60 mg/dL
sUA Observed, Mean [15]: 0.30 mg/dL
sUA Observed, Median [15]: 0.30 mg/dL
sUA < 6 mg/dL, % [16]: (100%)
sUA Change from Baseline, Mean [16]: -8.97 mg/dL
sUA Change from Baseline, Median [16]: -8.80 mg/dL
sUA Observed, Mean [16]: 0.30 mg/dL
sUA Observed, Median [16]: 0.30 mg/dL
sUA < 6 mg/dL, n (%) [17]: 13 (100%)
sUA Change from Baseline, Mean (SD) [17]: −8.92 (2.577) mg/dL
sUA Change from Baseline, Median [17]: -8.80 mg/dL
sUA Observed, Mean (SD) [17]: 0.30 (0.000) mg/dL
sUA Observed, Median [17]: 0.30 mg/dL
sUA < 6 mg/dL, % [18]: (33.3%)
sUA Change from Baseline, Mean [18]: -3.70 mg/dL
sUA Change from Baseline, Median [18]: -1.80 mg/dL
sUA Observed, Mean [18]: 5.03 mg/dL
sUA Observed, Median [18]: 6.60 mg/dL
sUA < 6 mg/dL, % [19]: (100%)
sUA Change from Baseline, Mean [19]: -8.59 mg/dL
sUA Change from Baseline, Median [19]: -8.60 mg/dL
sUA Observed, Mean [19]: 0.68 mg/dL
sUA Observed, Median [19]: 0.30 mg/dL
sUA < 6 mg/dL, η (%) [20]: 12 (85.7%)
sUA Change from Baseline, Mean (SD) [20]: −7.54 (3.768) mg/dL
sUA Change from Baseline, Median [20]: -8.00 mg/dL
sUA Observed, Mean (SD) [20]: 1.61 (2.637) mg/dL
sUA Observed, Median [20]: 0.30 mg/dL
sUA < 6 mg/dL, % [21]: (100%)
sUA Change from Baseline, Mean [21]: -9.10 mg/dL
sUA Change from Baseline, Median [21]: -9.10 mg/dL
sUA Observed, Mean [21]: 0.30 mg/dL
sUA Observed, Median [21]: 0.30 mg/dL
sUA < 6 mg/dL, % [22]: (100%)
sUA Change from Baseline, Mean [22]: -8.97 mg/dL
sUA Change from Baseline, Median [22]: -8.80 mg/dL
sUA Observed, Mean [22]: 0.30 mg/dL
sUA Observed, Median [22]: 0.30 mg/dL
sUA < 6 mg/dL, n (%) [23]: 12 (100%)
sUA Change from Baseline, Mean (SD) [23]: −8.98 (2.679) mg/dL
sUA Change from Baseline, Median [23]: -8.95 mg/dL
sUA Observed, Mean (SD) [23]: 0.30 (0.000) mg/dL
sUA Observed, Median [23]: 0.30 mg/dL
sUA < 6 mg/dL, % [24]: (50.0%)
sUA Change from Baseline, Mean [24]: -4.65 mg/dL
sUA Change from Baseline, Median [24]: -4.65 mg/dL
sUA Observed, Mean [24]: 4.25 mg/dL
sUA Observed, Median [24]: 4.25 mg/dL

Source: patent publication US20220323445A1, “REDUCING IMMUNOGENICITY TO PEGLOTICASE” (Horizon Therapeutics Ireland DAC, priority 2020, published 2022)
